Source: paper PMC11331505, “Binding Behavior of Human Hepatoma-Derived Growth Factor on SMYD1”

Key:
[1] = tested on: D. ficus RecA (D. ficus); assay: PIFE (Cy3 fluorescence enhancement); conditions: 1 nM DNA; HDGF assays: 46 mM NaCl, 0.9 mM KCl, 3.3 mM Na2HPO4, 0.66 mM KH2PO4, pH 7.4; at least 1 h on ice; 1-10 nM Cy3 DNA, 10 pM-100 nM protein; RecA dsDNA control at …
[2] = biological target: T1, HDGF C140 domain (human, UniProt P51858 101-240); assay: PIFQ (Cy3 fluorescence quenching); 1 nM DNA; HDGF assays: 46 mM NaCl, 0.9 mM KCl, 3.3 mM Na2HPO4, 0.66 mM KH2PO4, pH 7.4; at least 1 h on ice; 1-10 nM Cy3 DNA, 10 pM-100 nM protein; RecA dsDNA control at pH 7.5; conditions: protein: recombinant
T1 sequence (P51858 101-240): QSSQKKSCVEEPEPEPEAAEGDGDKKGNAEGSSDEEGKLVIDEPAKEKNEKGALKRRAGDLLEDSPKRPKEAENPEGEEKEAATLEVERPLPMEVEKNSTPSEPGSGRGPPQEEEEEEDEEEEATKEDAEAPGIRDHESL

[3] = biological target: T2, HDGF S103A (human, UniProt P51858 1-240, S103A); assay: PIFQ (Cy3 fluorescence quenching); 1 nM DNA; Hill n=0.50; HDGF assays: 46 mM NaCl, 0.9 mM KCl, 3.3 mM Na2HPO4, 0.66 mM KH2PO4, pH 7.4; at least 1 h on ice; 1-10 nM Cy3 DNA, 10 pM-100 nM protein; RecA dsDNA control at pH 7.5; conditions: protein: recombinant; label: Cy3
T2 sequence (P51858 whole entry S103A): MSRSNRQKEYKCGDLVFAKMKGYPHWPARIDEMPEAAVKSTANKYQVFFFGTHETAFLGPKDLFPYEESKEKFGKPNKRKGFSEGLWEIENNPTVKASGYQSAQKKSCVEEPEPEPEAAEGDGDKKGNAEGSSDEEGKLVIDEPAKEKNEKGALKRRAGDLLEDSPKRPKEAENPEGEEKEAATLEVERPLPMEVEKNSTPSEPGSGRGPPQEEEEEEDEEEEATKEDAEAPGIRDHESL

[4] = biological target: T3, HDGF (human, UniProt P51858 1-240); assay: PIFQ (Cy3 fluorescence quenching); 1 nM DNA; Hill n=0.55; HDGF assays: 46 mM NaCl, 0.9 mM KCl, 3.3 mM Na2HPO4, 0.66 mM KH2PO4, pH 7.4; at least 1 h on ice; 1-10 nM Cy3 DNA, 10 pM-100 nM protein; RecA dsDNA control at pH 7.5; conditions: protein: recombinant; label: Cy3
T3 sequence (P51858 whole entry, the tested form may be a part): as the sequence (P51858 whole entry S103A) above, with A103S counted along it

[5] = biological target: T4, HDGF PWWP domain (human, UniProt P51858 1-100); assay: PIFQ (Cy3 fluorescence quenching); 1 nM DNA; Hill n=1.00; HDGF assays: 46 mM NaCl, 0.9 mM KCl, 3.3 mM Na2HPO4, 0.66 mM KH2PO4, pH 7.4; at least 1 h on ice; 1-10 nM Cy3 DNA, 10 pM-100 nM protein; RecA dsDNA control at pH 7.5; conditions: protein: recombinant; label: Cy3
T4 sequence (P51858 1-100): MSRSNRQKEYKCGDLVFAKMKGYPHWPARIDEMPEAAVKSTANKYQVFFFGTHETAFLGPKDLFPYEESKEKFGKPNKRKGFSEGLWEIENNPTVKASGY

[6] = biological target: T5, HDGF PWWP domain;HDGF C140 domain (human;human, UniProt P51858;P51858 1-100;101-240, |); assay: PIFQ (Cy3 fluorescence quenching); 1 nM DNA; equal amounts premixed; Hill n=0.50; HDGF assays: 46 mM NaCl, 0.9 mM KCl, 3.3 mM Na2HPO4, 0.66 mM KH2PO4, pH 7.4; at least 1 h on ice; 1-10 nM Cy3 DNA, 10 pM-100 nM protein; RecA dsDNA control at pH 7.5; conditions: protein: recombinant;recombinant; copies: 1;1; label: Cy3
T5 sequence (P51858 1-100, chain 1 of 2): as the sequence (P51858 1-100) above
T5 sequence (P51858 101-240, chain 2 of 2): as the sequence (P51858 101-240) above

[7] = biological target: T4, HDGF PWWP domain; assay: PIFQ (Cy3 fluorescence quenching); 1 nM DNA; n=1.00; HDGF assays: 46 mM NaCl, 0.9 mM KCl, 3.3 mM Na2HPO4, 0.66 mM KH2PO4, pH 7.4; at least 1 h on ice; 1-10 nM Cy3 DNA, 10 pM-100 nM protein; RecA dsDNA control at pH 7.5; conditions: protein: recombinant; label: 5' Cy3
[8] = biological target: T2, HDGF S103A; assay: PIFQ (Cy3 fluorescence quenching); 1 nM DNA; Hill n=0.67; HDGF assays: 46 mM NaCl, 0.9 mM KCl, 3.3 mM Na2HPO4, 0.66 mM KH2PO4, pH 7.4; at least 1 h on ice; 1-10 nM Cy3 DNA, 10 pM-100 nM protein; RecA dsDNA control at pH 7.5; conditions: protein: recombinant; label: 5' Cy3
[9] = biological target: T4, HDGF PWWP domain; assay: PIFQ (Cy3 fluorescence quenching); 5 nM DNA; approximation model; HDGF assays: 46 mM NaCl, 0.9 mM KCl, 3.3 mM Na2HPO4, 0.66 mM KH2PO4, pH 7.4; at least 1 h on ice; 1-10 nM Cy3 DNA, 10 pM-100 nM protein; RecA dsDNA control at pH 7.5; conditions: protein: recombinant; label: 5' Cy3
[10] = biological target: T1, HDGF C140 domain; assay: PIFQ (Cy3 fluorescence quenching); 1 nM DNA; up to 100 nM protein; HDGF assays: 46 mM NaCl, 0.9 mM KCl, 3.3 mM Na2HPO4, 0.66 mM KH2PO4, pH 7.4; at least 1 h on ice; 1-10 nM Cy3 DNA, 10 pM-100 nM protein; RecA dsDNA control at pH 7.5; conditions: protein: recombinant; label: 5' Cy3
[11] = biological target: T5, HDGF PWWP domain;HDGF C140 domain; assay: PIFQ (Cy3 fluorescence quenching); 1 nM DNA; equal amounts premixed; Hill n=0.63; HDGF assays: 46 mM NaCl, 0.9 mM KCl, 3.3 mM Na2HPO4, 0.66 mM KH2PO4, pH 7.4; at least 1 h on ice; 1-10 nM Cy3 DNA, 10 pM-100 nM protein; RecA dsDNA control at pH 7.5; conditions: protein: recombinant;recombinant; copies: 1;1; label: 5' Cy3
[12] = biological target: T3, HDGF; assay: PIFQ (Cy3 fluorescence quenching); 1 nM DNA; Hill fit (approximation model 0.017 nM); HDGF assays: 46 mM NaCl, 0.9 mM KCl, 3.3 mM Na2HPO4, 0.66 mM KH2PO4, pH 7.4; at least 1 h on ice; 1-10 nM Cy3 DNA, 10 pM-100 nM protein; RecA dsDNA control at pH 7.5; conditions: protein: recombinant; label: 5' Cy3
[13] = biological target: T3, HDGF; assay: PIFQ (Cy3 fluorescence quenching); 5 nM DNA; Hill fit (approximation model 0.019 nM); HDGF assays: 46 mM NaCl, 0.9 mM KCl, 3.3 mM Na2HPO4, 0.66 mM KH2PO4, pH 7.4; at least 1 h on ice; 1-10 nM Cy3 DNA, 10 pM-100 nM protein; RecA dsDNA control at pH 7.5; conditions: protein: recombinant; label: 5' Cy3
[14] = biological target: T3, HDGF; assay: PIFQ (Cy3 fluorescence quenching); 10 nM DNA; Hill fit (approximation model 0.031 nM); HDGF assays: 46 mM NaCl, 0.9 mM KCl, 3.3 mM Na2HPO4, 0.66 mM KH2PO4, pH 7.4; at least 1 h on ice; 1-10 nM Cy3 DNA, 10 pM-100 nM protein; RecA dsDNA control at pH 7.5; conditions: protein: recombinant; label: 5' Cy3
[15] = biological target: T4, HDGF PWWP domain; assay: PIFQ (Cy3 fluorescence quenching); 10 nM DNA; approximation model; less reliable (protein depletion); HDGF assays: 46 mM NaCl, 0.9 mM KCl, 3.3 mM Na2HPO4, 0.66 mM KH2PO4, pH 7.4; at least 1 h on ice; 1-10 nM Cy3 DNA, 10 pM-100 nM protein; RecA dsDNA control at pH 7.5; conditions: protein: recombinant; label: 5' Cy3
[16] = biological target: T2, HDGF S103A; assay: PIFQ (Cy3 fluorescence quenching); 1 nM DNA; HDGF assays: 46 mM NaCl, 0.9 mM KCl, 3.3 mM Na2HPO4, 0.66 mM KH2PO4, pH 7.4; at least 1 h on ice; 1-10 nM Cy3 DNA, 10 pM-100 nM protein; RecA dsDNA control at pH 7.5; conditions: protein: recombinant; label: 5' Cy3
[17] = biological target: T3, HDGF; assay: as above; conditions: protein: recombinant; label: 5' Cy3
[18] = biological target: T4, HDGF PWWP domain; assay: PIFQ (Cy3 fluorescence quenching); 1 nM DNA; Hill fit; HDGF assays: 46 mM NaCl, 0.9 mM KCl, 3.3 mM Na2HPO4, 0.66 mM KH2PO4, pH 7.4; at least 1 h on ice; 1-10 nM Cy3 DNA, 10 pM-100 nM protein; RecA dsDNA control at pH 7.5; conditions: protein: recombinant; label: 5' Cy3
[19] = biological target: E. coli RecA (E. coli, UniProt P0A7G6 2-353); assay: PIFE (Cy3 fluorescence enhancement); 1 nM DNA; approximation model; HDGF assays: 46 mM NaCl, 0.9 mM KCl, 3.3 mM Na2HPO4, 0.66 mM KH2PO4, pH 7.4; at least 1 h on ice; 1-10 nM Cy3 DNA, 10 pM-100 nM protein; RecA dsDNA control at pH 7.5; conditions: label: Cy3
E. coli RecA, sequence (P0A7G6 2-353): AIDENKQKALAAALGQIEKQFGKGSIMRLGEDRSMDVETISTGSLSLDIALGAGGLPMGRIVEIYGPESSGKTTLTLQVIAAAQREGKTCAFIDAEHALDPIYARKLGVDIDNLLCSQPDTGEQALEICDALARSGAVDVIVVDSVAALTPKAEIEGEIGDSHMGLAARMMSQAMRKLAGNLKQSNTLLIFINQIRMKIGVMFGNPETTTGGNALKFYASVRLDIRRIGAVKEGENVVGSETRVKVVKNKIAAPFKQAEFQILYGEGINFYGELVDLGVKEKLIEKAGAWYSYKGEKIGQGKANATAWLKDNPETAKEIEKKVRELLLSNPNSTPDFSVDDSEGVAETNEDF

[20] = biological target: T4, HDGF PWWP domain; assay: PIFQ (Cy3 fluorescence quenching); 1 nM DNA; Hill n=1.0; unit not printed in legend; HDGF assays: 46 mM NaCl, 0.9 mM KCl, 3.3 mM Na2HPO4, 0.66 mM KH2PO4, pH 7.4; at least 1 h on ice; 1-10 nM Cy3 DNA, 10 pM-100 nM protein; RecA dsDNA control at pH 7.5; conditions: protein: recombinant; label: 3' Cy3
[21] = biological target: T3, HDGF; assay: PIFQ (Cy3 fluorescence quenching); 1 nM DNA; Hill n=0.60; unit not printed in legend; HDGF assays: 46 mM NaCl, 0.9 mM KCl, 3.3 mM Na2HPO4, 0.66 mM KH2PO4, pH 7.4; at least 1 h on ice; 1-10 nM Cy3 DNA, 10 pM-100 nM protein; RecA dsDNA control at pH 7.5; conditions: protein: recombinant; label: 3' Cy3

## TTTTTTTTTTTTTTTTTTTTTTTTTTTTTTTTTTTTTTTT (double strand) [poly(T-A)40 dsDNA]
[1]
  Kd: 19 nM

## TTTTTTTTTTTTTTTTTTTTTTTTTTTTTTTTTTTTTTTT [poly(dT)40 ssDNA]
[1]
  Kd: 13.6 nM

B1: GC-rich dsDNA (dsDNA)
DNA 1: TCCTCGCTGCCGTCGGCCA
DNA 2: TGGCCGACGGCAGCGAGGA
[2]; label: Cy3
  binding result: no binding
[3]
  Kd: 0.34 ± 0.06 nM
[4]
  Kd: 0.25 ± 0.03 nM
[5]
  Kd: 0.97 ± 0.19 nM
[6]
  Kd: 0.45 ± 0.06 nM

B2: 15 bp SMYD1 dsDNA (5' Cy3) (dsDNA)
DNA 1: TTCAAGACCAGCCTG
DNA 2: CAGGCTGGTCTTGAA
[7]
  Kd: 0.94 ± 0.1 nM
[8]
  Kd: 0.072 ± 0.003 nM
[9]
  Kd: ~1 nM
[10]
  binding result: no binding
[11]
  Kd: 0.12 ± 0.04 nM
[12]
  Kd: 0.095 ± 0.016 nM
[13]
  Kd: 0.085 ± 0.024 nM
[14]
  Kd: 0.076 ± 0.02 nM
[15]
  Kd: 1.6 ± 0.2 nM

B3: poly(T-A)15 dsDNA (dsDNA)
DNA 1: TTTTTTTTTTTTTTT
DNA 2: AAAAAAAAAAAAAAA
[2]; label: 5' Cy3
  binding result: no binding
[16]
  binding result: no binding
[17]
  binding result: no binding
[18]
  Kd: 1.6 ± 0.2 nM

B4: poly(dT)40 ssDNA (ssDNA)
DNA: TTTTTTTTTTTTTTTTTTTTTTTTTTTTTTTTTTTTTTTT
[19]
  Kd: 34.5 ± 6.8 nM

B5: 15 bp SMYD1 dsDNA (3' Cy3) (dsDNA)
DNA 1: TTCAAGACCAGCCTG
DNA 2: CAGGCTGGTCTTGAA
[20]
  Kd: 1.4 ± 0.2 nM
[21]
  Kd: 0.08 ± 0.004 nM
